Laboratory results taken from patent publication US20240192215A1 (E AND S HEALTHCARE, published 2024).

What was measured:
Peptide_005 [1] = biological target: T1, Peptide_005 (human); assay: peptide microarray, 0.2 ug/mL
T1 construct: 15-mer on microarray; not native form, recombinant insert region
T1 peptide: ADVHSQHHHHHHHHV
Description: (§1) 5, 1, 0.2, 0.04, 0.008 and 0.0016 μg/mL serial dilutions were incubated on a single multi-well microarray slide at 30° C. for 1 hour. The slide includes 21 individual mini-arrays (one mini-array per sample dilution).
(§2) DyLight 650 was used as a label. False-positive binding to a peptide was evaluated by performing one additional control incubation in which only a secondary antibody was applied on the same microarray slide. Before performing each step, the microarrays were washed with a washing buffer.

Peptide_004 [2] = biological target: T2, Peptide_004 (human); assay: peptide microarray, 0.2 ug/mL
T2 construct: 15-mer on microarray; not native form, recombinant insert region
T2 peptide: AADVHSQHHHHHHHH
Description: as §1, §2

Peptide_005 [3] = biological target: T1, Peptide_005; assay: peptide microarray, 0.04 ug/mL
Description: as §1, §2

Peptide_004 [4] = biological target: T2, Peptide_004; assay: peptide microarray, 0.04 ug/mL
Description: as §1, §2

Peptide_092 [5] = biological target: T3, Peptide_092 (human); assay: peptide microarray, 0.2 ug/mL
T3 construct: 15-mer of hTrx1 on microarray
T3 peptide: PTFQFFKKGQKVGEF
Description: as §1, §2

Peptide_025 [6] = biological target: T4, Peptide_025 (human); assay: peptide microarray, 0.2 ug/mL
T4 construct: 15-mer of hTrx1 on microarray
T4 peptide: KTAFQEALDAAGDKL
Description: as §1, §2

Peptide_024 [7] = biological target: T5, Peptide_024 (human); assay: peptide microarray, 0.2 ug/mL
T5 construct: 15-mer of hTrx1 on microarray
T5 peptide: SKTAFQEALDAAGDK
Description: as §1, §2

Peptide_086 [8] = biological target: T6, Peptide_086 (human); assay: peptide microarray, 0.2 ug/mL
T6 construct: 15-mer of hTrx1 on microarray
T6 peptide: CEVKCMPTFQFFKKG
Description: as §1, §2

Peptide_023 [9] = biological target: T7, Peptide_023 (human); assay: peptide microarray, 0.2 ug/mL
T7 construct: 15-mer of hTrx1 on microarray
T7 peptide: ESKTAFQEALDAAGD
Description: as §1, §2

Peptide_015 [10] = biological target: T8, Peptide_015 (human); assay: peptide microarray, 0.2 ug/mL
T8 construct: 15-mer on microarray; not native form, includes recombinant insert region
T8 peptide: HHHHVKQIESKTAFQ
Description: as §1, §2

Peptide_022 [11] = biological target: T9, Peptide_022 (human); assay: peptide microarray, 0.2 ug/mL
T9 construct: 15-mer of hTrx1 on microarray
T9 peptide: IESKTAFQEALDAAG
Description: as §1, §2

Peptide_085 [12] = biological target: T10, Peptide_085 (human); assay: peptide microarray, 0.2 ug/mL
T10 construct: 15-mer of hTrx1 on microarray
T10 peptide: ECEVKCMPTFQFFKK
Description: as §1, §2

Peptide_018 [13] = biological target: T11, Peptide_018 (human); assay: peptide microarray, 0.2 ug/mL
T11 construct: 15-mer on microarray; not native form, includes recombinant insert region; also called HVKQIESKTAFQEAL
T11 peptide: HVKQIESKTAFQEAL
Description: as §1, §2

Peptide_020 [14] = biological target: T12, Peptide_020 (human); assay: peptide microarray, 0.2 ug/mL
T12 construct: 15-mer of hTrx1 on microarray
T12 peptide: KQIESKTAFQEALDA
Description: as §1, §2

Peptide_051 = biological target: T13, Peptide_051 (human); assay: peptide microarray, 0.2 ug/mL
T13 construct: 15-mer of hTrx1 on microarray
T13 peptide: PCKMIKPFFHSLSEK
Description: as §1, §2

Peptide_084 [15] = biological target: T14, Peptide_084 (human); assay: peptide microarray, 0.2 ug/mL
T14 construct: 15-mer of hTrx1 on microarray
T14 peptide: SECEVKCMPTFQFFK
Description: as §1, §2

Peptide_093 [16] = biological target: T15, Peptide_093 (human); assay: peptide microarray, 0.2 ug/mL
T15 construct: 15-mer of hTrx1 on microarray
T15 peptide: TFQFFKKGQKVGEFS
Description: as §1, §2

Peptide_095 [17] = biological target: T16, Peptide_095 (human); assay: peptide microarray, 0.2 ug/mL
T16 construct: 15-mer of hTrx1 on microarray
T16 peptide: QFFKKGQKVGEFSGA
Description: as §1, §2

Peptide_012 [18] = biological target: T17, Peptide_012 (human); assay: peptide microarray, 0.2 ug/mL
T17 construct: 15-mer on microarray; not native form, includes recombinant insert region
T17 peptide: HHHHHHHVKQIESKT
Description: as §1, §2

Peptide_094 [19] = biological target: T18, Peptide_094 (human); assay: peptide microarray, 0.2 ug/mL
T18 construct: 15-mer of hTrx1 on microarray
T18 peptide: FQFFKKGQKVGEFSG
Description: as §1, §2

Peptide_014 [20] = biological target: T19, Peptide_014 (human); assay: peptide microarray, 0.2 ug/mL
T19 construct: 15-mer on microarray; not native form, includes recombinant insert region
T19 peptide: HHHHHVKQIESKTAF
Description: as §1, §2

Peptide_092 [21] = biological target: T3, Peptide_092; assay: peptide microarray, 0.04 ug/mL
Description: as §1, §2

Peptide_025 [22] = biological target: T4, Peptide_025; assay: peptide microarray, 0.04 ug/mL
Description: as §1, §2

Peptide_019 = biological target: T20, Peptide_019 (human); assay: peptide microarray, 0.04 ug/mL
T20 construct: 15-mer of hTrx1 on microarray
T20 peptide: VKQIESKTAFQEALD
Description: as §1, §2

Peptide_024 [23] = biological target: T5, Peptide_024; assay: peptide microarray, 0.04 ug/mL
Description: as §1, §2

Peptide_086 [24] = biological target: T6, Peptide_086; assay: peptide microarray, 0.04 ug/mL
Description: as §1, §2

Peptide_023 [25] = biological target: T7, Peptide_023; assay: peptide microarray, 0.04 ug/mL
Description: as §1, §2

Peptide_021 = biological target: T21, Peptide_021 (human); assay: peptide microarray, 0.04 ug/mL
T21 construct: 15-mer of hTrx1 on microarray
T21 peptide: QIESKTAFQEALDAA
Description: as §1, §2

Peptide_015 [26] = biological target: T8, Peptide_015; assay: peptide microarray, 0.04 ug/mL
Description: as §1, §2

Peptide_022 [27] = biological target: T9, Peptide_022; assay: peptide microarray, 0.04 ug/mL
Description: as §1, §2

Peptide_085 [28] = biological target: T10, Peptide_085; assay: peptide microarray, 0.04 ug/mL
Description: as §1, §2

Peptide_018 [29] = biological target: T11, Peptide_018; assay: peptide microarray, 0.04 ug/mL
Description: as §1, §2

Peptide_020 [30] = biological target: T12, Peptide_020; assay: peptide microarray, 0.04 ug/mL
Description: as §1, §2

Peptide_013 = biological target: T22, Peptide_013 (human); assay: peptide microarray, 0.04 ug/mL
T22 construct: 15-mer on microarray; not native form, includes recombinant insert region
T22 peptide: HHHHHHVKQIESKTA
Description: as §1, §2

Peptide_084 [31] = biological target: T14, Peptide_084; assay: peptide microarray, 0.04 ug/mL
Description: as §1, §2

Peptide_093 [32] = biological target: T15, Peptide_093; assay: peptide microarray, 0.04 ug/mL
Description: as §1, §2

Peptide_045 = biological target: T23, Peptide_045 (human); assay: peptide microarray, 0.04 ug/mL
T23 construct: 15-mer of hTrx1 on microarray
T23 peptide: SATWCGPCKMIKPFF
Description: as §1, §2

Peptide_095 [33] = biological target: T16, Peptide_095; assay: peptide microarray, 0.04 ug/mL
Description: as §1, §2

Peptide_012 [34] = biological target: T17, Peptide_012; assay: peptide microarray, 0.04 ug/mL
Description: as §1, §2

Peptide_094 [35] = biological target: T18, Peptide_094; assay: peptide microarray, 0.04 ug/mL
Description: as §1, §2

Peptide_014 [36] = biological target: T19, Peptide_014; assay: peptide microarray, 0.04 ug/mL
Description: as §1, §2

B1: monoclonal antibody B266-1 (antibody, human IgG1)
light: QIVLTQSPAIMSASPGEKVTMTCSASSRISYMYWYQQKPGTSPKRWIYDTSKLASGVPARFSGSGSGTSYSLTISTMEAEDAATYYCHQRSSYPTFGAGTKLELKSVAAPSVFIFPPSDEQLKSGTASVVCLLNNFYPREAKVQWKVDNALQSGNSQESVTEQDSKDSTYSLSSTLTLSKADYEKHKVYACEVTHQGLSSPVTKSFNRGEC
heavy: not shown
notes: B266 with the Fc part changed to human IgG1; also called B266-1 (Trx1-hIgG1); B266-1 (hTrx1-hIgG1)
signal (blank-control = 1) (Peptide_005 [1]): 1.78 | signal (blank-control = 1) (Peptide_004 [2]): 1.41 | signal (blank-control = 1) (Peptide_005 [3]): 1.6 | signal (blank-control = 1) (Peptide_004 [4]): 1.14

B2: monoclonal antibody B264 (antibody, mouse IgG1, kappa, V domains shown)
VH: QVQLQQSGAELARPGASVKMSCKASGYTFTSYTMHWVKQRPGQGLEWIGYINPTSDYTNYNQKFKDKATLTADKSSSTAYMQLSSLTSEDSAVYFCASEGGFLYYFDYWGQGTTLTVSS
VL: DVLMTQTPLSLPVSLGDQASISCRSSQSIVHSNGNTYLEWYLQKPGQSPKLLIYKVSNRFSGVPDRFSGSGSGTDFTLKISRVEAEDLGVYYCFQGSHVPYTFGGGTKLEIKR
notes: also called AB264; B264 (Trx1-mIgG1)
signal (blank-control = 1) (Peptide_092 [5]): 6.81 | signal (blank-control = 1) (Peptide_025 [6]): 4.9 | signal (blank-control = 1) (Peptide_024 [7]): 4 | signal (blank-control = 1) (Peptide_086 [8]): 1.16 | signal (blank-control = 1) (Peptide_023 [9]): 1.12 | signal (blank-control = 1) (Peptide_015 [10]): 2.5 | signal (blank-control = 1) (Peptide_022 [11]): 4.2 | signal (blank-control = 1) (Peptide_085 [12]): 2.23 | signal (blank-control = 1) (Peptide_018 [13]): 3.49 | signal (blank-control = 1) (Peptide_020 [14]): 1.84 | signal (blank-control = 1) (Peptide_051): 2.32 | signal (blank-control = 1) (Peptide_084 [15]): 2.36 | signal (blank-control = 1) (Peptide_093 [16]): 3.72 | signal (blank-control = 1) (Peptide_095 [17]): 2.13 | signal (blank-control = 1) (Peptide_012 [18]): 1.72 | signal (blank-control = 1) (Peptide_094 [19]): 2.11 | signal (blank-control = 1) (Peptide_014 [20]): 3.16 | signal (blank-control = 1) (Peptide_092 [21]): 5.18 | signal (blank-control = 1) (Peptide_025 [22]): 2.39 | signal (blank-control = 1) (Peptide_019): 1.2 | signal (blank-control = 1) (Peptide_024 [23]): 2.38 | signal (blank-control = 1) (Peptide_086 [24]): 1.14 | signal (blank-control = 1) (Peptide_023 [25]): 1.15 | signal (blank-control = 1) (Peptide_021): 1.35 | signal (blank-control = 1) (Peptide_015 [26]): 1.69 | signal (blank-control = 1) (Peptide_022 [27]): 2.89 | signal (blank-control = 1) (Peptide_085 [28]): 1.48 | signal (blank-control = 1) (Peptide_018 [29]): 1.64 | signal (blank-control = 1) (Peptide_020 [30]): 1.33 | signal (blank-control = 1) (Peptide_013): 1.4 | signal (blank-control = 1) (Peptide_084 [31]): 1.83 | signal (blank-control = 1) (Peptide_093 [32]): 2.46 | signal (blank-control = 1) (Peptide_045): 4.59 | signal (blank-control = 1) (Peptide_095 [33]): 1.66 | signal (blank-control = 1) (Peptide_012 [34]): 1.15 | signal (blank-control = 1) (Peptide_094 [35]): 1.49 | signal (blank-control = 1) (Peptide_014 [36]): 1.49
